# Laboratory results as given in patent publication US20220002701A1.
# Columns and labels:
# [1] = target: SARS-CoV-2 S protein containing D614 with the C-terminal 19 residues of the cytoplasmic tail deleted, on MLV pseudovirus (SARS-CoV-2) (UniProt P0DTC2); test: cell-based or functional assay
# [2] = target: stabilized soluble SARS-CoV-2 S ectodomain trimer in the pre-fusion conformation (SARS-CoV-2; bacteriophage T4) (UniProt P0DTC2)
# Sequence of ACE2615-LL-foldon (Q9BYF1 18-615, tags left off, one chain of several): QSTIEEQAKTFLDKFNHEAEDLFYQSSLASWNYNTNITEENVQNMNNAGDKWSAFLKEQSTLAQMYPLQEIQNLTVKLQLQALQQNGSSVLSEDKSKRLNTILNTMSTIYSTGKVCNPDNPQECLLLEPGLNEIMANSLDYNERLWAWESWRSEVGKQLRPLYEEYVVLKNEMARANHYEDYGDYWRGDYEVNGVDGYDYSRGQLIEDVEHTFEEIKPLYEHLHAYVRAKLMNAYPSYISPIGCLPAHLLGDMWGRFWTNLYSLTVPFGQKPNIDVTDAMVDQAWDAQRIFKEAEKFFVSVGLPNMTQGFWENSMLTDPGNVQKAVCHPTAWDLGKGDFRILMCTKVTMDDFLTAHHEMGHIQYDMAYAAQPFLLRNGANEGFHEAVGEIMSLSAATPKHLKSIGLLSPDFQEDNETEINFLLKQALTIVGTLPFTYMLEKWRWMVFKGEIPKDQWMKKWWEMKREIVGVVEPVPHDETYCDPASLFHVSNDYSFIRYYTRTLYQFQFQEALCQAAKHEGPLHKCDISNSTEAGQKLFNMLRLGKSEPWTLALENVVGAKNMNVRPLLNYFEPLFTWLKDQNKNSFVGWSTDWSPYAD
substance,measurement,setting,value
ACE2615-LL-foldon (from UniProt Q9BYF1 18-615; P10104 458-484) (receptor),"IC50, inhibition of MLV-based pseudovirus infection of ACE2-expressing cells",[1],0.6 µg/mL
same,Kd,[2],0.624 nM
same,ka2,[2],3.3
same,kdis2,[2],0.365
same,koff,[2],8.26e-05 s⁻¹
same,kon,[2],133000 M⁻¹ s⁻¹
